Article PMC6520340, “Development of a ribonuclease containing a G4-specific binding motif for programmable RNA cleavage”

Target: RHAU140-RNase HI fusion (Homo sapiens (RHAU) / Bacillus …, UniProt Q9H2U1 53-192+=SGGGSGGGSGGGSGGG+Q9KEI9:59-196, internal_change)
Test: EMSA; 10 uM DNA, 50 uM protein; 100 mM K+; Native 10% PAGE in 1X TBE, 20 mM potassium phosphate, 100 mM KCl, pH 7.0; UV shadowing; temperature not stated
Settings: protein: recombinant

RHAU140-RNase HI fusion, sequence (Q9H2U1 other isoform, or with tags, fused parts or gaps): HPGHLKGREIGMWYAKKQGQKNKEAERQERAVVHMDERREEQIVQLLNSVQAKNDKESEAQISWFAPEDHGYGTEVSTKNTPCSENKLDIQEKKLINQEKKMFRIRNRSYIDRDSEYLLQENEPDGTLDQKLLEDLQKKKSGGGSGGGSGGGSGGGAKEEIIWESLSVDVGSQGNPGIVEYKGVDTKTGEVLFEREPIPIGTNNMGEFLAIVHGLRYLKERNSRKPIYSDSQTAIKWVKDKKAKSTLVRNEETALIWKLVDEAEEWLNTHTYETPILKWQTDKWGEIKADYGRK

Binder | binding result (parallel G4 with 3' single-stranded tail) | binding result (single strand)
TTGGGTGGGTGGGTGGGTTCAACGACGACGGCATCATC (structured_DNA) [B1] | binds | 
TTGACTAAGTGCCTTAGTTCAACGACGACGGCATCATC (ssDNA) [B0] |  | no binding
